We go through eleven molecules from article doi:10.1101/2023.09.12.557426 (bioRxiv, 2023).

Data set [1] addresses xlNup93(168-820) (Xenopus laevis, UniProt Q7ZX96). In words: cryo-EM structure.
Data set [2] concerns the target Xenopus Nup93, target protein of the BLI measurement (Xenopus, UniProt Q7ZX96). Nature of the data set: BLI. For orientation: In BLI a coated tip is dipped into the sample, and binding shifts an interference pattern.
In data set [3] the target is human Nup93 from HeLa lysate (human (endogenous in HeLa), UniProt Q8N1F7). In words: pull-down.
For data set [4], the target named is Xenopus Nup93 from egg extract (Xenopus laevis (endogenous in egg …, UniProt Q7ZX96)). In words: pull-down.
Data set [5] addresses His14-NEDD8 tagged APD of xtNup98(715-866) (Xenopus tropicalis, UniProt A0A1B8XZT4). Nature of the data set: pull-down.
Data set [6] deals with T1, Xenopus Nup98 from egg extract (Xenopus laevis, endogenous in egg …, UniProt A0A8J1MFV7). In words: immunostaining of cells or tissue.
Data set [7] addresses T2, human Nup98 of HeLa cells (human (endogenous in HeLa), UniProt P52948). Nature of the data set: immunostaining of cells or tissue.
Data set [8] addresses hNup35(173-248, the RRM domain) (human, UniProt Q8NFH5). Nature of the data set: crystal structure.
For data set [9], the target named is Xenopus Nup35 from egg extract, in newly assembled NPCs (Xenopus laevis, UniProt I1VEB0). Nature of the data set: immunostaining of cells or tissue.
Data set [10] addresses human Nup35 in NPCs of HeLa cells (Homo sapiens (HeLa), UniProt Q8NFH5). Nature of the data set: immunostaining of cells or tissue.
The target of data set [11] is T1, Xenopus Nup98 from egg extract. Nature of the data set: pull-down.
The target of data set [12] is T2, human Nup98 of HeLa cells. In words: pull-down.
Data set [13] deals with the molecule itself. Nature of the data set: crystal structure.

T2 sequence (P52948 1-880): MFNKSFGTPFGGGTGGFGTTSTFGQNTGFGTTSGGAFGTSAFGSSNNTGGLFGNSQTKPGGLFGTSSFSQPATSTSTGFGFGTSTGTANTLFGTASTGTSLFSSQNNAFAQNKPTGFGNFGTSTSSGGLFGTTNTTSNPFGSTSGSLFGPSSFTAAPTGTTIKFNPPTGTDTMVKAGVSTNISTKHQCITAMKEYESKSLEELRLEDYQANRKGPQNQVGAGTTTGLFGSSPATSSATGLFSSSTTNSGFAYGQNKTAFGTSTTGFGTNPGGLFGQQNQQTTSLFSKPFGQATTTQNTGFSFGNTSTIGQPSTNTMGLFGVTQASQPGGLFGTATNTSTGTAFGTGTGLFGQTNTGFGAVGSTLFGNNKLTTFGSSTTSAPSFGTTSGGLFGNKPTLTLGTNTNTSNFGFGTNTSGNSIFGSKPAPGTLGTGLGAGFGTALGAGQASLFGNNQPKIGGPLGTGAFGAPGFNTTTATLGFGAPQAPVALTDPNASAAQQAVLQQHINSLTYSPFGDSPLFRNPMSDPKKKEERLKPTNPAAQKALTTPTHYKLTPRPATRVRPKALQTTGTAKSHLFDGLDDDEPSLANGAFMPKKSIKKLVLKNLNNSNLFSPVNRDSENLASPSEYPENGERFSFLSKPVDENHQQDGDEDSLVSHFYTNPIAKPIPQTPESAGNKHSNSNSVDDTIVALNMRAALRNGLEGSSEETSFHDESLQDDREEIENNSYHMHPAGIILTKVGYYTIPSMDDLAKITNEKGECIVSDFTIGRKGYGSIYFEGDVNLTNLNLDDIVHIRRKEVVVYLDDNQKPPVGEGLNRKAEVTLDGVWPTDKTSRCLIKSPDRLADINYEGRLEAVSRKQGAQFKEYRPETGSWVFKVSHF
Chain of xlNup93(168-820) (Q7ZX96 168-820): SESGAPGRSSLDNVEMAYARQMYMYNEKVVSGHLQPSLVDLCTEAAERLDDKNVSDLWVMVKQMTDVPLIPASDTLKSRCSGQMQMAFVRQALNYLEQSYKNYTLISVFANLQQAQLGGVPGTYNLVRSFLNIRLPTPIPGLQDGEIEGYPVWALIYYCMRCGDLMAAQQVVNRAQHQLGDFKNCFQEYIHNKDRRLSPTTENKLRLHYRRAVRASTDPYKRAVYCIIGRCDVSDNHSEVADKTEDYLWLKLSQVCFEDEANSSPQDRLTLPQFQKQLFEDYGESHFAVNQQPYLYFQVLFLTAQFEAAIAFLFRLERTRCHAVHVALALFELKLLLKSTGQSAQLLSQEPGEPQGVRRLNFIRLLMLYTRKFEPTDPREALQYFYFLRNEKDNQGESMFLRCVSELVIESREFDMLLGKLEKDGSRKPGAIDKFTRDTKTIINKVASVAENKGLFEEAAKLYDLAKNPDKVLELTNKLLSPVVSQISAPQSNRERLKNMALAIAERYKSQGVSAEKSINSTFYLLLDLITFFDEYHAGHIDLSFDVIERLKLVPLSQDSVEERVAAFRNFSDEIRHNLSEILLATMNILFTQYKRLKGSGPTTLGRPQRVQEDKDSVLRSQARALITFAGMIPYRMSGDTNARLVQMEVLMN
Chain of human Nup35 in NPCs of HeLa cells (Q8NFH5 whole entry): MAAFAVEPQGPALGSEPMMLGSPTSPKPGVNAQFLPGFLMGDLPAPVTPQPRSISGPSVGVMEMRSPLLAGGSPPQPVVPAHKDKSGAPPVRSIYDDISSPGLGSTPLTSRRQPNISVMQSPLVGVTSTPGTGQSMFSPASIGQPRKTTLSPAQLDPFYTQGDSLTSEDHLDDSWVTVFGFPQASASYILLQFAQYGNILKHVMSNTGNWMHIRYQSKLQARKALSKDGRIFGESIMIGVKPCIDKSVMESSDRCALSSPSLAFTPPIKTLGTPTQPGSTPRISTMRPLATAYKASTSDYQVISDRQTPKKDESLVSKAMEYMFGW
Chain of human Nup93 from HeLa lysate (Q8N1F7 whole entry): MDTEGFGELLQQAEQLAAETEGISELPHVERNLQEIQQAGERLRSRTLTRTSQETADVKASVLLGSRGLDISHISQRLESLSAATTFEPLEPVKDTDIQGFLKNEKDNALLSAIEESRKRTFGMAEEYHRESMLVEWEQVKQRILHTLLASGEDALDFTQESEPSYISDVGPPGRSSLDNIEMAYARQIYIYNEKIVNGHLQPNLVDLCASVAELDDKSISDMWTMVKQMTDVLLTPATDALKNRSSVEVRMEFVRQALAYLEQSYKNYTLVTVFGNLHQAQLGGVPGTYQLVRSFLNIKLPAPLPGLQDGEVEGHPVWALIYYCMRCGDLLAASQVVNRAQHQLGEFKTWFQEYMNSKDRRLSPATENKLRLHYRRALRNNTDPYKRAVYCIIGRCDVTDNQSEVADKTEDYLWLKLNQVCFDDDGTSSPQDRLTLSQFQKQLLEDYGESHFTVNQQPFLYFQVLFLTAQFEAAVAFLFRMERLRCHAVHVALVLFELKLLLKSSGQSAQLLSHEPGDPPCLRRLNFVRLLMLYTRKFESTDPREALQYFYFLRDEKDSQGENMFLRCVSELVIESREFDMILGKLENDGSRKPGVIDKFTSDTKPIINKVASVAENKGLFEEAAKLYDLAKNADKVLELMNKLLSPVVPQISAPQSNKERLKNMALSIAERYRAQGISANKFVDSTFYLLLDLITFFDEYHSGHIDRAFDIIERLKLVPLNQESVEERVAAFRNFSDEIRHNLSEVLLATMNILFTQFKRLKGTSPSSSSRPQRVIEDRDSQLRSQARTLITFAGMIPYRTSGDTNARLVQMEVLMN
Chain of Xenopus Nup93 from egg extract (Xenopus laevis (Q7ZX96 whole entry): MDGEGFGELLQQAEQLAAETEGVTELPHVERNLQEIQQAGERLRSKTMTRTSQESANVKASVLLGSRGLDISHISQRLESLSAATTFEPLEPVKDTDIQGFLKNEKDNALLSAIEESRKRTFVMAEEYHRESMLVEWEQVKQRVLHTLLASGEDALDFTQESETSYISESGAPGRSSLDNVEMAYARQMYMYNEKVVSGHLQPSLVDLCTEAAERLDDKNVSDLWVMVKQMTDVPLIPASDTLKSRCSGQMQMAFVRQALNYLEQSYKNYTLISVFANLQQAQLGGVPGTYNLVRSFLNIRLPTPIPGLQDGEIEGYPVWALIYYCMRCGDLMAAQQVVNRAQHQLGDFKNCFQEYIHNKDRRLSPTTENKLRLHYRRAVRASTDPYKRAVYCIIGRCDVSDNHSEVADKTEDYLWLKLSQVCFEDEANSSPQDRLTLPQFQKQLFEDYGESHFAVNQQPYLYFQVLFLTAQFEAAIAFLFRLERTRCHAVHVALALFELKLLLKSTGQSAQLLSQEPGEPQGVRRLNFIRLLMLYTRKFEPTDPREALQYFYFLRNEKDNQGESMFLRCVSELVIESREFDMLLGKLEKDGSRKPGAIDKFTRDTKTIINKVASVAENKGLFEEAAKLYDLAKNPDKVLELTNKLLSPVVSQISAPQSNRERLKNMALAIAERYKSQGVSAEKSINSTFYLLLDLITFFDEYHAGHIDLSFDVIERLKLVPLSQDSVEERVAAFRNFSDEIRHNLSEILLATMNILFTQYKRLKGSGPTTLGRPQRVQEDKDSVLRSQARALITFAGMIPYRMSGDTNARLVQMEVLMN
Chain of Xenopus Nup93, target protein of the BLI measurement (Q7ZX96 whole entry): as above

B1: xNup93-Nb2t (VHH)
VHH: DVQLVESGGGLVQPGGSLRLSCVASGFTFSRVGMGWVRQAPGKGLEWVSDINASGGTGYADSVKGRFAISRDNAKNTLYLQMNRLKPEDTAVYYCAKMMDTAMIEAGIIKPAGQGTQVTVSS
Regarding B1, the binding result in data set [1] is listed as “binds”.

B2: xhNup93-Nb4i, biotinylated at two ectopic cysteines (VHH)
VHH: QVQLVESGGGVVQTGDSLMLSCTVSGHTIDNWAMGWFRQTPRKQREFVAAIDKRGTGAIYGNSVKGRFTVSRDNAKNMVYLRMNSLKPEDTAVYFCAVDQLNAGLGDVSYDYDYWGQGTQVTVSS
Regarding B2, in data set [2], the binding result is “binds”.

B3: xhNup93-Nb4i (VHH)
VHH: B2 VHH
For B3, the binding result in [1] is on record as “binds”.

B4: (biotin)-Avi-SUMO^Eu1-xhNup93-Nb4i (VHH)
VHH: B2 VHH
Take B4: the binding result in [3] and in data set [4] was “binds” each time.

B5: xNup98-Nb1t (VHH)
VHH: QVQLVESGGGPVEAGGSLRLSCAASGRSFSNSVMAWFRQAPGKEREFLSVLNWSSGRTSIADSVKGRFTMSRDPAKITVYLQMNGLKPEDTAVYYCAASNRGSLYTLDNQNRYEDWGQGTQVTVSS
As for B5, in [5], the binding result was “binds”.

B6: xNup98-Nb1t, fluorophore-labelled (VHH)
VHH: B5 VHH
For the molecule B6, the results for the binding result in [6] and in data set [7] were “binds” and “no binding (tested: 35 nM)”, respectively.

B7: xhNup35-Nb1t (VHH)
VHH: QVQLVESGGGLVQAGGSLRLSCVGTGNISSAYTMAWYRQAAGKEREVVAGILNGGSTHYADSVKGRFTISRDNAKNTVYLQMNSLQPEDTGVYCCHVVIESTRFVYDHYWGQGTRVTVSS
Regarding B7, the binding result in data set [8] is reported as “binds”.

B8: xhNup35-Nb1t, fluorophore-labelled (VHH)
VHH: B7 VHH
Turning to B8, the binding result in data set [9] and in data set [10] was “binds” each time.

B9: xhNup98-Nb2i (VHH)
VHH: QVQLVESGGGLAKPGGSLRLSCVATGTFRSMEDVGWYRQAPGKDRELVAEITTLGKVTYADSVKGRFTISRDDAKNAVYLQMSDLKSEDTAVYYCNIEADQTKGIGYVVYPYWGQGTRVTVSS
Take B9: the binding result in data set [5] was “binds”.

B10: (biotin)-Avi-SUMO^Eu1-xhNup98-Nb2i (VHH)
VHH: B9 VHH
In the case of B10, the binding result in data set [11] and in data set [12] was “binds” in each case.

B11: hNup35(173-248, the RRM domain) (domain or fragment)
chain: DSWVTVFGFPQASASYILLQFAQYGNILKHVMSNTGNWMHIRYQSKLQARKALSKDGRIFGESIMIGVKPCIDKSV
Take B11: the binding result in [13] was “binds”.
